The nanobody polyreactivity screen of Harvey et al. (2022)

assay: yeast display, Sf9 membrane polyspecificity reagent, FACS + sequencing; frameworks hold sequencing errors
Procedure, shortened: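 A synthetic nanobody library was expressed on Saccharomyces cerevisiae BJ5465 by galactose induction for 36–48 hours. The library was stained for 1 hour at 4 °C with 10% biotinylated, detergent-solubilized Sf9 membrane reagent and enriched with streptavidin microbeads before FACS. Low and high (top ~1%) gates were set on anti-HA fluorescence for expression and streptavidin fluorescence for reagent binding, and each polyreactivity label reflects the gate of origin.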

| Sequence | polyreactivity (PSR sort gate) |
| --- | --- |
| QVQLVESGGGLVQAGGSLRLSCAASGRIFYGKAMGWYRQAPGKERELVAGITTSGGGTYYADSVKGRFTISRDNAKNTVYLKMNSLKPEDTAVYYCAAKYRRYRDIQDGGYWGQGTQVTVSS | low polyreactivity |
| QVQLVESGGGLVQAGGSLRLSCAASGSTFFDYAMGWYRQAPGKERELVAAISSGGSTKYADSVKGRFTISRDNAKNTVYLQMNSLKPEDTAVYYCAATRWNGRRGYGYWGQGTQVTVSS | high polyreactivity |
| QVQLVESGGGLVQAGGSLRLSCAASGSTRYYAMGWYRHAPGKERELVASITTIGGSTSYADSVKGRFTISRDNAKNTVYLQMNSLKPEDTAVYYCATRSLVYSARAAGLIQFDHWGQGTQVNVSS | low polyreactivity |
| QVQLVESGGGLVQAGGSLRLSCAASGSIFYSYAMAWYRQAPGKERELVAAITSGGSTYYADSVKGRFTISRDNAKNTVYLQMNTLKPEDTAVYYCAKRWPAYWGKGHGSWGQGTQVTVSS | high polyreactivity |
| QVQLVESGGGLVQAGGSLRLSCAASGFIFARNAMGWYRQAPGKERELVAVISTRGRTYYADSVKGRFTISRDNAKNTVYLQMNSLKPEDTAVYYCNADKVIGYDYWGQGTQVTVSS | high polyreactivity |
| QVQLVESAGGLVQEGGSLRLSCAASGLTFYGNAMGWYRQAPGKERELVAAISSSGGTTSYADSVKGRFTISRDNAKNTVYLQFNSLKPEDTAVYYCAARPSGGYESTRTRDYWGQGTQVTVSS | low polyreactivity |
| QVQLVESGEGLVQAGGRLRLSCAPSGSTFMTYAMGWYRQAPGKERELVAAIRWSGGGTYYADSVKGRFTISRDNAKNTVYLQMNSLKPEDTAVYYGAADHFNYTPGRDYWGQGTQVTVSS | low polyreactivity |
| QVQLVESGGGLVQAGGSLRLSCAASGLTFWEYAMGWYRQAPGKERELVAAITWGGNTYYADSVKGRFTISRDNAKNTVYLQMNSLKPEDTAVYYCAARGYYLTGGFRRYYYWGQGTQVTVSS | high polyreactivity |
| QVQLVESGGGLVKAGGSLRLSCAASGSTFPLYAMGWYRQAPGKEREFVAAIRWIGGSTYYADSVKGRFTISRDNAKNTVYLQMNSLKPEDTAVYFCAADYVVSAFDYWGQGTQVTVSS | low polyreactivity |
| QVQLVESGGGLVQAGGSLRLSCAASGLIFVVYAMGWYRPAPGKERELVADISSGGRTSYADSVKGRFTISRDNAKNTVYLQMNSLKPEDTAVYYCNAYPVFNQYYGWRYDYWGQGTQVTVSS | low polyreactivity |
| QVQLVESGGGLVQAGGSLRLSCAASGRIFGPYTMGWYRQAPGKERELVATISYSGSTTYYADSVKWRFTISRDNAKNTVYLQMNSLKPEDTAVYYCNAQYYVFITFDYWGQGTQGTVSS | high polyreactivity |
| QVQLVESGGGLVQAGGSLRLSCAASGFTFDYYAMGWYRQAPGKERELVAVITSRGGSTFYADSVKGRFTISRDNAKNTVYLQMNSLKPEDTAVYYCARQHYRLFRPYDYWGQGTQVTVSS | high polyreactivity |
| QVQVVESGGGLVQAGGSLRISCAASGRISVVHAMGWYRQAPGKERELVATINSGGSTYADSVKGRFTNSRDNAKNNVFFQMISQIPEDTAFYYCSARTFRISRLDFWGQCTQVTVSS | high polyreactivity |
| QVQLVESGGGLVLAGGSLRLSCAASGRTFRSYAMGWYRQAPGKERELVAAISSGGSTNYADSVKGRFTISRDNAKNTVYLQMNSLKPEDTAVYYCAATFQLYRFIGYEYWGQGTQVTVSS | high polyreactivity |
| QVQLVESGGGLDQAGGSLRLSCAASGITFPGYAMGWYRQAPGKERELVAAIDWSGDGTYYADSVKGRFTISRDNAKNTVYLQMNSLKPEDTAVYYCAKDNYPNHSTVLAVIYDYWGQGTQVTVSS | low polyreactivity |
| QVQLVESGGGLVQAGGSLRLSCAASGSTFDTYAMGGYRQAPGKERELVAAISYPGGNTYYADSVKGRFTISRDNAKNTVYLQMNRLKPEDTAVYYCNADVVDGGLAYDYWGQGTQVTVSS | low polyreactivity |
| QVQLVESGGLLVQAGGSLRLSCAASGRIFNYNAMGWYRQAPGKERELVAAIDSGGRTNYADSVKARFTISRDNAKNTGYLQMNSLKPEDTAVYYCNREAAHGSLRWTEMEYWGQGTQVTVSS | low polyreactivity |
| QVQLVESGGGLVQAGGSLRLSCAASGSTLYPNAMGWYRQAPGKERELVAAISSGSSTYADSVKGRFTISRDNAKNTVYLQMNRLKPEDTAVYYCNADSRIHYDYWGQGTQVTVSS | low polyreactivity |
| QVQLVDSGGGLVQAGGSLRLSCAASGRTFRYYDMGWYRPAPGEVREFVAAITWRGGSTYYADSVKGRFTISRDNAKNTVYSQMNSLKPEDTAVYYCATDSLRLYGGKRDLYYWGQGTQVTVSS | low polyreactivity |
| QVQLVESGGGLVQPGGSLRLSCAASGRTFVPYAMGWYRQAPGKEREFVAVITWGGGSTYYADSVKGRFTISRDNAKNTVYLQMNSLKPEDTAVYYCDARVYYHYDYWGQGTQVTVSS | high polyreactivity |
| QVQLVESGGGLVQAGGSLRLSCAASGFIFWKNAMGWYRQAPGKERELVAAISWSGGRTYYADSVKGRFTISRDNAKNTVYLQMNSLKPEDTGVYYCDASVGPFPVRGDYWGQGTQVTVSS | low polyreactivity |
| QVQLLESGGGLVQAGGSLRLSCAASGSTFGYYTMGWYRQAPGKERVLVAGISSGGSTNYADSVKGRFTISRDNAKNTVYLQMNSLKQEDTAVYYCDTGSYSYHRGYVTYARFGYWGQGTQVTVSS | low polyreactivity |

| Sequence | polyreactivity (PSR sort gate) |
| --- | --- |
| QVQLVESGGGLVQAGGILRLSCAASGSIFAHYTMGWYRKAPGKERELVAAISGSGGSTYYADSVKGRFTISRDNAKNTVYLQMNSLKPEVTAVYYCNKRYRPVGPYDYWGQGTQVTVSS | high polyreactivity |
| QVQLVESWGGLVQAGGSLRLSCAASGRIFDRYAMGWYRQAPGKERELVASISSGGSTYYADSVKGRFTISRDNAKNTVYLQMNSLKPEDTAVYYCNAEARSRRYRYEYWGQGTQVTVSS | high polyreactivity |
| QLQLVQSGGGLVQAGGILRLSCAPSGSIFTPNTMGWYSQAPGKERELVAAITIRGGSTYYADSVKGSFTISRDNANITVYLQMNSLKPEDTAVYYCATEYGLRYYLVDYWGQGTQVTVSS | low polyreactivity |
| QVQLVESGGGLVQGGGSLGLSCAASGRIFPVNAMGWYRQAPGKERELVAAISTTGARTYYADSVKGRFTISRDNAKNTVYLQMNSLKPEDTAVYYCAAKQFSVTLSNYWGQGTQVTVSS | low polyreactivity |
| QVQLVDSGGGLVQAGGSLRLSCAASGFIFQANAMGWYRQAPGKERELVAAIDDGDSTYADSVKGRFTISRDNAKNTVYLQMNSLKPEDTAVYYCATRRNRSYDYWGQGTLVTVSS | low polyreactivity |
| QVQLVESGGGLVQAGGSLRLSCAASGRIFYSYAMGWNRQAPGKESQLVARSTRGSSTYYADSVKGRLTISRDNAKKTFYVQMNSMKPEDTAVYYCAQSRYTALTNHWSHDYWGPGTQVTVSS | low polyreactivity |
| QVQLVESGGGLVQAGGSLRLSCAASGFTFSRKAMGWYRQAPGKERELVASITRSGASTYYADSVKGRFTISRDNAKNTVYLQMNSLKPEDTAVYYCNAYYVALPPNMDYWGQGTQVTLSS | high polyreactivity |
| QDQLVESGGGLVQGGGSLRLSCAASGRIFSPYAMGWYRQAPGKEREVVAAITSASSTYYADSVKGRFTISRDNAKNTVYLQMNSLKPEDTAVNYCAASYWRYGSAFDYWGHGTQVTVSS | high polyreactivity |
| QVQLVESGGGLVQAGGILRLSCAASGSILTDNAMGWYRQAPGKERELVAAITSSGNTNYADSVKGRFTISRDNAKNTVFLQMNSLKPEDTAVYYCARDLREWGQGTQVTVSS | low polyreactivity |
| QVQLVESGGGLVQAGGSLRLSCAPSGLTYLYAMGWYRQAPGKETELVAAISSSGGSTYYADSVKGRFTISRDNAKNTVSLQMNSLNPEDTGVYYCAAYTRGWLGYDYWGQGTQVTVSS | high polyreactivity |
| QVQLVESGGGLVQAGGSLRLSCAASGSILPRYVMGSYRQAPAKETELVAAISQSGGSTYYADTVKARFTISRDNAKNTVYLQMNRLKPEDTAVYYCAAEVRGWRVDYYYWGQGTQVTVSS | high polyreactivity |
| QVQLVESGGGLVQAGGSLRLSCADSGSIVLVNAMGWSRQAPGKEREMVAAITYGGDSTYYADSVKGRFTISRDNAKNSVYFQINSLKREDTAVYYFAADAWVGWHDEYDYWGQGTQVTVSS | low polyreactivity |
| QVQIVESGGCLVQAGGSLRLSCAASGRIIVRNAMGWYRQARGTERELVADITNGGSTNYADSVKGRFTISRDNAKNTVFLEMNSLKPEDTAVDFCAADTLGVYDGDYWGQGTQVTVSS | low polyreactivity |
| QDQLVESGGGLLQAGGSLRLSCASSGSIFANYVMGWYRQAPGKEREYFAGISRSGGSTYYADSVKGRFKISRDNAKNTVYLQMTSLKPEDTAVYYCNAGAGQRVSGHSFEYWGQGTQVTVSS | high polyreactivity |
| QVQLVESGGGLVQAGGSLRLSCAASGFTFTGYAMGWYRQAPGKERELVAALTRGGGSTYYADSVKGRFTISRDNAKNTVYLQMNSLKPEDTAVYYCAAQRSRLIRISSPYYGHDYWGQGTQVTVSS | low polyreactivity |
| QVQLVESGGGLVQAGGSLRLSCAASGNTFYGYAMGWYRQAPGKERVLVATIDSGGSTNYADSVKGRFTISRDNAKNTVYFQMNSLKPEDTAVYYCAADGVWYYNDMDYWGQGTQVTVSS | low polyreactivity |
| QVQLVESGGGLVQAGGSLRLSCAASGFIFGRNAMGWYRQAPGKERELVAVISKRSGNTYYADSVKGRFTISRDNAKNTVYLQMNSLKPEDTAVYYCNAVDQKLLRYDYWGQGTQVTVSS | high polyreactivity |
| QVQLVESGGGLVQAGGSLRLSCAASGRTSYGYAIGWYRQAPGKERELVAAITYGGGSTYYADSVKGRFTISRDNEKNTVYLQMNSLKPEDTAVYYCAADRTGSTLYTIRYYYWGQGTQVTVSS | low polyreactivity |
| QVQLVESGGGLVQAGGSLRLSCAASGGTFLGYAMGWYRQAPGKDRELVAAIAASGGNTYYADSVKGRFTISRDNAKNTVYLQMNSLKPEATAVYYGAARQYRSVLKYDYWGQGTQVTVSS | high polyreactivity |
| QVQLVESGGGLDQAGGSLRLSCAASRSTFPHYAMGWYRQAPGKERELVAAIYSTGGSTYYADSVKGRFTISRDNAKNTVYLQMNSLKPEDTAVYYCAASRLYWGQGNQVTVSS | high polyreactivity |
| QVQLVESGGGLVQAGGSLRLICAASGSIFGRYAMGWYRQAPGKETELVAAINDDSGRTYYADSVKGRFTISRDNAKNTVYLQMNSLKPEDTAVYYCAADGYVLWYSFDYWGQGTLVTVSS | high polyreactivity |
